For two molecules, Kd results are on record in publication doi:10.1101/575910 (bioRxiv, 2019).

The target of assay [1] is N-terminal region of Cul3 (Cul3a residues 1-379) (zebrafish, UniProt F6NVK8 1-379). In words: MST.
Assay [2] concerns the target Cul3 NTD lacking the first 18 amino acids (zebrafish, UniProt F6NVK8 19-379). In words: MST.

B1: BTB-BACK fragment of Btbd6 (Btbd6a residues 119-361) (domain or fragment)
chain: SAHPTLRERNALMFNNEQMADVHFIVGPPGESQRVPAHKYVLAVGSSVFCAMFYGDLAEGDSDIHIPDVEPAAFLILLKYMYSDEIELAPDTVLATLYAAKKYLVSALARACVGFLETSLEARNACVLLSQSRLFEEPELTQRCWEVIDAQAELALRSEGFSEIDLPTLESILHRETLNVKESVVFQAVLGWADAECRRQGLSPTSQNQRSVLGKALHLVRLPSMTLQEFADGAAQVDILTLE
modifications: NT-647 amine-reactive dye (RED-NHS kit) where used as the labelled partner in MST
What is called Kd is a measure of binding affinity in units of concentration. A high value points to weaker binding. As to B1, the Kd in assay [1] turned out to be 12 nM.

B2: BTB domain of Plzf (Plzfa residues 8-126) (domain or fragment)
chain: MIQLQNPNHPNALLHKANQMRLAGTLCDVVIMVDSQEFHAHRTVLACTSKMFEILFHRNSQHYTLDFLSPKTFQQILEYAYTATLQAKVEDLDDLLYAAEILEIEYLEEQCLKILETIQ
modifications: NT-647 amine-reactive dye (RED-NHS kit) where used as the labelled partner in MST
As for B2, the Kd is 2900 nM in assay [1] and at least 20000 nM in assay [2].
